{
  "source": "patent US20160091498",
  "proteins": {"B1": {"name": "purified ACK1 (protein)", "chain": "GEGPLQSLTCLIGEKDLRLLEKLGDGSFGVVRRGEWDAPSGKTVSVAVKCLKPDVLSQPEAMDDFIREVNAMHSLDHRNLIRLYGVVLTPPMKMVTELAPLGSLLDRLRKHQGHFLLGTLSRYAVQVAEGMGYLESKRFIHRDLAARNLLLATRDLVKIGDFGLMRALPQNDDHYVMQEHRKVPFAWCAPESLKTRTFSHASDTWMFGVTLWEMFTYGQEPWIGLNGSQILHKIDKEGERLPRPEDCPQDIYNVMVQCWAHKPEDRPTFVALRDFLLEAQPTDMRALQDFEEPDKLHIQMNDVITVIEGRAENYWWRGQNTRTLCVGPFPRNVVTSVAGLSAQDISQPLQNSFIHTGHGDSDPRHCW"}},
  "target": "purified histone H4 (New England Biolabs), P62805",
  "data": [
    {"protein": "B1", "values": [
      {"measurement": "in vitro kinase assay with all the four core histones, immunoblotting with pY88-H4 antibodies", "value": "Presence of band exclusively when ACK1 was incubated with H4"},
      {"measurement": "in vitro kinase assay, immunoblotting with pY88-H4 and pTyr antibodies", "value": "indeed H4 is directly Tyr-phosphorylated by ACK1"}
    ]}
  ]
}
